Assay: yeast display, Sf9 membrane polyspecificity reagent, FACS + sequencing; frameworks hold sequencing errors
Procedure, shortened: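 A nanobody's polyreactivity label depends on the gate it was sorted from. Yeast display cells were stained with 10% biotinylated, detergent-solubilized Sf9 membrane reagent for 1 hour at 4 °C, enriched on streptavidin microbeads and sorted by FACS. The low and high (top ~1%) gates were set on anti-HA fluorescence for expression and streptavidin fluorescence for reagent binding.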

Row | Sequence | polyreactivity (PSR sort gate)
1 | QVQHVESGGGLVQAGGSLRLSCAASGLTFTYYVKGCYRQAPGKERELVAAITVSGGSTYYADSVKGRFTISRDNAKNTVYLQMNSLKPEDTAVYYCAADAYSGYSDYYWGQGTQVTVSS | low polyreactivity
2 | QVQLVESGGGLVQAGGSLRLSCAASGRTSSRNAMGWYRQAPGKERELVAAISQSGGSTYYADSVKGRFTISRDNAKNTVYLQMNSLKPEDTAVYYCAKEYKPQSYPTYYNYYYWGQGTQVTVSS | low polyreactivity
3 | QVQLVESCGGLVQAGGSLRLICDDSGNTFNRYAMGWYRQAPGKERELVADITSGGRTYYAYSVKGRFTISRDNAKNTVYLQMNSVKPVDTAVYYCAGEWWDLGNFYWSYRYDYWGQCTQVTVSS | high polyreactivity
4 | QVQLVESGVGLVQAGGSLRLSCAASGNIFTTYAMGWYRQAPGKERELVAAISRTGGRTSYADSVKGRFTISRDNAKNTVYLQMNSLKPEDTAVYYCAAVPTVRPSAPRARILSDYWGQGTQVTVSS | high polyreactivity
5 | QVQLVESGGGLVQAGGSLRLSCAASGSTFVRYVMGWYRQAPGKERELVAAISRRGGSTYYADSVKGRFTISRDNAKNTVYLQMNSLKPEDTAVYYCAARGTSRKYYYWGQGTQVTVSS | high polyreactivity
6 | QVQLVESGGGLVQAGGSLRLSCAASGFTLFGYAMGWYRPAPGKERELVAAITSGDGRTYYADSVKGRFTISRDNAKNTVYLQMNSLKPEDTAVYYCAATRYSSYYYVRHDHWGQGTQVTVSS | low polyreactivity
7 | QVQLVESGGGLVQAGGSHRLSCAASGSTSGINAMGWYRQAPGKERELVAAIRLSGGRTYYADSVKGRFTISRDNAKNTVYLQMNSLKPEDTAVYYCAARYPSRVGYYYLGQGTQVTVSS | high polyreactivity
8 | QVQLVESGGGLVQAGGSLRLSCAASGLIFSVYAMGWYRQAPGKERELVAAISWSGSTYYADSVKGRFTISRDNAKNTVYLQMNSLKPEDTAVDYCAAEYDYDHFYWMDYWGQGTQVTVSS | high polyreactivity
9 | QVQLVESGGGLVQAGGSLRLSCAASGRIFDVYAMGWYRQAPGKERELVASISWSDGSTYYADSVKGRFTLSRDNAKNTVYLQMNSLKPEDTAVYYCNALTELGGRWDDYWGQGTQVTVSS | low polyreactivity
10 | QVQLVESGGGLVLAGGSLRLSCAASGRTFGWNAMGWYRQAPGTERELVAAISWSGGSTSYADSVKARFTISRDNAKNTVYLQMNSLKPEDTAVYYCGKLDSYGMYYWGQGTQVTVSS | low polyreactivity
11 | QVQLVESGGGLVQAGGSLRLSCAASGSTFKRYAMGWYRQAPGKERELVAAISRRGGSTYYADSVKGRFTISRDNAKNTVYLQMNSLKPEDTAVYYCAARIASHLYYYWGQGTQVTVSS | high polyreactivity
12 | QVQLVESGRGLVQAGGSLRLSCAASGSICGYYTMGWYRQAPGKERELVAAITSGGSTNYADSVKGRFTISRDNAKNTVYLQMNSLKPEDTAVYYCAKVSYYPWRYDYWGQGTQVTVSS | low polyreactivity
13 | QVQLLESGGGLVQARGSLRLSCAASGRNFVPYVMGWYRQAPGKERELVASISDSDTSTYYADSVKGRFTISRDNAKNTVYLQMNSLKPEDTAVYYCNVDYWGQGTQVTVSS | low polyreactivity
14 | QVQLVESGGGLVQAGGSLRLSCAASGRTFGIKAMGWYRQAPGKERELVATITTGTSTNYAVSVKGRFTISRDNAKNTVYLQMNSLKPEDTAVYYCAARDWYGWEFDYWGQGTQVTVSA | low polyreactivity
15 | QVQLVESGGGLVQAGGSLRLTCAASGRNFRAYAMGWYRQAPGKERELVAAISTSGGSTRYADSVKGRFTISRDNAKNTVYLQMNSLKPEDTAVYYCARYTTRTYEYNYWGQGTQVTVSS | high polyreactivity
16 | QVQLVESGGGLVQAGGSLRLSCAASGRTFYWNAMGWYRQAPGKDRDLVASISWSGGRTYYADSVKGRFTISRDNAKNTVYLQMNSLKPEDTAVYYCARRYSGTPSTFYYWGQGTQVNVSS | high polyreactivity

Row | Sequence | polyreactivity (PSR sort gate)
17 | QVQLVESGGGLVQAGGSLRLSCAASGSTFLEYARGWSRQAPGKERELVATITGGGGTNYADSVKGRFTISRDNAKNTVYLQMNSLKPEETAVYYCAADYGGAYEYGYWGQGTQVTVSS | low polyreactivity
18 | QDQLVESGGGLVQAGGSLRLSCASSVRTIYIYAMGWYRHPPGKESEFVASITGRGTRTYYADSVKGRFTISRDNAKNTVYLQMNSLTQEDTAVYYCNARGKVQSSYDEDYWGQGTQVTVSS | high polyreactivity
19 | QVQLVESGGGLVQAGGSLRLSCAASGRIFLHYAMGWYRQAPGKERELVAAISRSGGSTYYADSVKGRFTISRDNAKNTVYLQMNSLKPEDTAVYYCAAAYPFKTTEGYYYWGQGTQVTVSS | high polyreactivity
20 | QVQLVESGGGLVQAGGSLRLSCAASGRTFFYNAMGWYRQAPGKERELVARITQSGVITYYADSVKGRFTISRDNAKNTVYLQMNSLKPEDTAVYYCNADDTYSPFRGVSYDYWGQGTQVTVSS | low polyreactivity
21 | QVQLVESAGGLVQAGASLRLSCAASGFIFRYNTKGWYRQAPGKEMELVATINRSGGSTYYADSVKGRFTISRDNAKNTVYLQMNSLKPVDTAVYYCAAVSLQPYYNAGATWDGDYWGQGTQVTVSS | high polyreactivity
22 | QVQLVESGGGLVQAGGSLRLSCAASGSIFDHTNAMGWYRQAPGKERELVAAITSGSSTNYADSVKGRFTISRDNAKNTVYLQMNSLKPEDTAVYYCNADRFHSGIFDYWGQGTQVTVSS | low polyreactivity
23 | QVQLVESGGGLVQAGGSLRLSCAASGSIFTLYAMGWYRQAPGKERELVAAITWTGGSTYYADSVKGRFTISRDNAKNTVYLQMNSLKPEDTAVYYCATDGYWQSNGAFYYVARHGGYWGQGTQVTVSS | low polyreactivity
24 | QVQLVESGGGLVPAGGSRRLSCAASGFTFGGYAMGWYRQAPGKETELVAAMRSSGDTTYDADSVKGRFTISRDNAKKTVNLQMNSLKPEDTAVYYCAARWGTYWGGLGGDPDIDYDDWGQGTQVTVSS | low polyreactivity
25 | QVQLVESGGGLLQAGGSLRLSCAASGSTFPPYAMGWYRQAPGKERELVAAIDWSDGTTYYADSVKGRFTISRDNAKNTVYLQMNSLKPEDTAVYYCAASLSQSEYDYWGQGTQVTVSS | low polyreactivity
26 | QVQLVESGGGLVQAGGSLRLSCAASGRILATYTKGWYRPAPGKERELVATITSGGRTTYADSVKGRFTISRDNAKNTVYLQMNSLKPEDTAVYYCNVAYWYYRKYRPLWGRDYYWGQGTQVTVSS | high polyreactivity
27 | QVQLVETGGGVVQAGGSLRLSCAASGRTFGFNAMGWYIQAPGKERELVASITSTGGRTYYADSVKGLFTISRDNAKNTVYLQMNCLKPEDTAVYYCAAGSRSRAPYYRTIVDTYGYWGQGTQVTVSS | low polyreactivity
28 | QVQLVESGGGLVQAGGSLRLSCAASGSTFKIYAMGWYRQAPGKERELVAAITRGGSTNYADSVKGRFTISRDNAKNTVYLQMNSLKPEDTAVYYCAASYWYRRYGTYTYDYWGQGTQVTVSS | high polyreactivity
29 | QVQLVESGGGLVQAGGSLRLSCAASGFTFERYAMGWYRQAPGKERELVAAIDWRGVNTYYADSVKGRFTISRDNAKNTVYLQMNSLKPEDTAVYYCNARAYGRYYWGQGTQVTVSS | high polyreactivity
30 | QVQLVESGGGLVQAGGSLRLSCAASGRIFGVYAMGWYRPAPGKERELVAAITRGASTYYADSVKGRFTISRDNAKNTVYLQMNSLKPEDTAVYYCAAVVSGRYWGYYSWGQGTQVTVSS | high polyreactivity
31 | QVQLVESGGGLVQAGGSLRLSCAASGRIFRYNAMGWYRQAPGKERELVAAITGCGGSTYYADSVKGRFTISRDNAKNTVYLQMNSLKPEDTAVYYCNTYTYYSRMDYWGQGTQVTVSS | high polyreactivity
32 | QVQLVESGGGLVQAGGSLRLSCAASGTIFTTYAIGWYRQEPGKERELVSAISGRGSDTYYADSVKGRFTISRDNAMNTVYLQMNSLKPEDTAVYYCNARRSRAYHGRSFEYWGQGTQVTLSS | low polyreactivity

Source: the nanobody polyreactivity screen of Harvey et al. (2022)
